Measurements reported in patent US20240190962A1 (IMMUNOWAKE, published 2024).

T1: human IL-2 receptor (IL-2Rα, IL-2Rβ, IL-2Rγ) (human, UniProt P01589 22-272; P14784 27-551; P31785 23-369)
T1 sequence (looked up) 1: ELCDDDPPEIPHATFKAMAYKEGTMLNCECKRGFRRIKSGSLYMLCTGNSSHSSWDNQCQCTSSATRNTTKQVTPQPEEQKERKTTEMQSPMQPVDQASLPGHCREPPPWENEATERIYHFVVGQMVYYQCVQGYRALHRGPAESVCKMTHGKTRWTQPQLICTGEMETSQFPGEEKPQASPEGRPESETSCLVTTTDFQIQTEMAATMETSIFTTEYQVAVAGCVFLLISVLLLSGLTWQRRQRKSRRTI
T1 sequence (looked up) 2: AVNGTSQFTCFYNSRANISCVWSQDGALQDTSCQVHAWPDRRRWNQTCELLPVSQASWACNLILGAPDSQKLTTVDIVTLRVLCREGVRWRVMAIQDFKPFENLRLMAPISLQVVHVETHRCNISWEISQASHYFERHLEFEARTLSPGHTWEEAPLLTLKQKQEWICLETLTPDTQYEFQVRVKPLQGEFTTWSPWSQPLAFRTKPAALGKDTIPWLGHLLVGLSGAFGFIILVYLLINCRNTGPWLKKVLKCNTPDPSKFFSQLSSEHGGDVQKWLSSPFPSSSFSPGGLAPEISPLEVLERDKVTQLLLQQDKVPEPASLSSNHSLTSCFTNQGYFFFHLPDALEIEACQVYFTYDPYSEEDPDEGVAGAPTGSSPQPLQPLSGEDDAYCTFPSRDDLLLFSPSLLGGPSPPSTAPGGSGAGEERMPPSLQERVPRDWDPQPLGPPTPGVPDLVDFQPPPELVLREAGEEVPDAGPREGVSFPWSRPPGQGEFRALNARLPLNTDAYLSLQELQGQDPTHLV
T1 sequence (looked up) 3: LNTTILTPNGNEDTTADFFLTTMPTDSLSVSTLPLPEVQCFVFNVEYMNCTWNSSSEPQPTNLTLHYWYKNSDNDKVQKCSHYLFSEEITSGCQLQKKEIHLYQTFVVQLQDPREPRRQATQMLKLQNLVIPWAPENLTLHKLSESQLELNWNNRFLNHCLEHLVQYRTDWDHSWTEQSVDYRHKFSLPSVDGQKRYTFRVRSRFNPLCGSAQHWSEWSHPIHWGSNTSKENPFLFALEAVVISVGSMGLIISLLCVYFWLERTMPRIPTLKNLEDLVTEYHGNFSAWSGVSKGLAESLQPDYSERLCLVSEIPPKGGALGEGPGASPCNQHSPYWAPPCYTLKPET


Assays:
[1] = molecular target: T1, human IL-2 receptor (IL-2Rα, IL-2Rβ, …); test: cell-based or functional assay
[2] = molecular target: T2, human IL-12 receptor complex (IL-12Rβ1, IL-12Rβ2) (human, UniProt P42701 24-662; Q99665 24-862); test: cell-based or functional assay
CD8 on CD8+ T cells = molecular target: T3, CD8 on CD8+ T cells (UniProt P01732 22-235); test: FACS
T3 construct: whole, on cells

[3] = molecular target: T2, human IL-12 receptor complex (IL-12Rβ1, …); test: cell-based or functional assay; remark: listed apart in the source

T2 sequence (Q99665 24-862, chain 2 of 2, other chains not shown): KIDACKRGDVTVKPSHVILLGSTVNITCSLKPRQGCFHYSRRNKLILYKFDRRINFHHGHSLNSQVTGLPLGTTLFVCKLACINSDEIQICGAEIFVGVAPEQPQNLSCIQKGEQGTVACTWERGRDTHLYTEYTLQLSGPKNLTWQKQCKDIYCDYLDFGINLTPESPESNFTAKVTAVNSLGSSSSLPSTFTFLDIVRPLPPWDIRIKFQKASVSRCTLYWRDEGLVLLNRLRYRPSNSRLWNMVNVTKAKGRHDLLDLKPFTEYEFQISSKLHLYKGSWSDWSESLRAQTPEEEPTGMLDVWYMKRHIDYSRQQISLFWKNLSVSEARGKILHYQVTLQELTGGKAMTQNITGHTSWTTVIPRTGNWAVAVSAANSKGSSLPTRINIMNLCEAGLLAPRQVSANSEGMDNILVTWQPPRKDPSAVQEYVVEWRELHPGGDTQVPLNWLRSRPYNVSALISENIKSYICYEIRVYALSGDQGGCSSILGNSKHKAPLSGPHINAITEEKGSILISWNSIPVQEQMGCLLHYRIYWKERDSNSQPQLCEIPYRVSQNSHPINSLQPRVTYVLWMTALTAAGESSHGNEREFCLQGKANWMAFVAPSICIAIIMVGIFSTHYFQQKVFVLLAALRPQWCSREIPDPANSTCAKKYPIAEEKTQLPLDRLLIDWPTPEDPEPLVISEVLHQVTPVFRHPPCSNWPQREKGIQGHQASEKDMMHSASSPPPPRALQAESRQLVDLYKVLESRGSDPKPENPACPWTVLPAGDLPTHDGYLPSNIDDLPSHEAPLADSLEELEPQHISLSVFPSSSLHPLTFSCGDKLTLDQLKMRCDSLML
T3 sequence (P01732 22-235): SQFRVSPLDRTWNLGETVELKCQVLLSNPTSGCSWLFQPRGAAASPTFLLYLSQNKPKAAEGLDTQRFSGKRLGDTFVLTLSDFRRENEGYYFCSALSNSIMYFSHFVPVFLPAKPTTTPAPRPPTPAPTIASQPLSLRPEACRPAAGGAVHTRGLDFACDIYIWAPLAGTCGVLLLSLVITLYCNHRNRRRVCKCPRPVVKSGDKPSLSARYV

IL-2 biological activity, HEK-IL-2 [1] | IL-2 biological activity, HEK-IL-2-PD-1 [1] | IL-12 biological activity, HEK-IL-12 [2] | IL-12 biological activity, HEK-IL-12-PD-1 [2] | binding result (CD8 on CD8+ T cells) | IL-12 biological activity (IFN-γ release), CD4+ T cells [3] | IL-12 biological activity (IFN-γ release), CD8+ T cells [3] | Binder
3% | 32% | 2% | 27% |  |  |  | IL-2(L18R/Q22E/R38D/K43E/E61R)/PD-L1(mut2)-Fc/IL-12(E59A/F60A) (Fc fusion) chain 1: FTVTVPKDLYVVEYGSNMTIECKFPVEKQLDLAALQVYWMMEDKNIIQFVHGEEDLKVQHSSYRQRARLLKDQLSLGNAALQITDVKLQDAGVYTCLIAYKGADYKRITVKVNAPYNKINQRILVVDPVTSEHELTCQAEGYPKAEVIWTSSDHQVLSGKTTTTNSKREEKLFNVTSTLRINTTTNEIFYCTFRRLDPEENHTAELVIPELPLAHPPNERGGGGSGGGDKTHTCPPCPAPEDEGGPSVFLFPPKPKDTLMISRTPEVTCVVVDVSHEDPEVKFNWYVDGVEVHNAKTKPREEQYNSTYRVVSVLTVLHQDWLNGKEYKCKVSNKALPAPIEKTISKAKGQPREPQVYVYPPSREEMTKNQVSLTCLVKGFYPSDIAVEWESNGQPENNYKTTPPVLDEDGSFALVSKLTVDKSRWQQGNVFSCSVMHEALHNHYTQKSLSLSPGKGGGGSGGGIWELKKDVYVVELDWYPDAPGEMVVLTCDTPEEDGITWTLDQSSEVLGSGKTLTIQVKAAGDAGQYTCHKGGEVLSHSLLLLHKKEDGIWSTDILKDQKEPKNKTFLRCEAKNYSGRFTCWWLTTISTDLTFSVKSSRGSSDPQGVTCGAATLSAERVRGDNKEYEYSVECQEDSACPAAEESLPIEVMVDAVHKLKYENYTSSFFIRDIIKPDPPKNLQLKPLKNSRQVEVSWEYPDTWSTPHSYFSLTFCVQVQGKSKREKKDRVFTDKTSATVICRKNASISVRAQDRYYSSSWSEWASVPCSGGGGSGGGSGGGGSRNLPVATPDPGMFPCLHHSQNLLRAVSNMLQKARQTLEFYPCTSEEIDHEDITKDKTSTVEACLPLELTKNESCLNSRETSFITNGSCLASRKTSFMMALCLSSIYEDLKMYQVEFKTMNAKLLMDPKRQIFLDQNMLAVIDELMQALNFNSETVPQKSSLEEPDFYKTKIKLCILLHAFRIRAVTIDRVMSYLNAS chain 2: FTVTVPKDLYVVEYGSNMTIECKFPVEKQLDLAALQVYWMMEDKNIIQFVHGEEDLKVQHSSYRQRARLLKDQLSLGNAALQITDVKLQDAGVYTCLIAYKGADYKRITVKVNAPYNKINQRILVVDPVTSEHELTCQAEGYPKAEVIWTSSDHQVLSGKTTTTNSKREEKLFNVTSTLRINTTTNEIFYCTFRRLDPEENHTAELVIPELPLAHPPNERGGGSGAPTSSSTKKTQLQLEHLRLDLEMILNGINNYKNPKLTDMLTFEFYMPKKATELKHLQCLERELKPLEEVLNLAQSKNFHLRPRDLISNINVIVLELKGSETTFMCEYADETATIVEFLNRWITFCQSIISTLTGGGGSGGGDKTHTCPPCPAPEKKGGPSVFLFPPKPKDTLMISRTPEVTCVVVDVSHEDPEVKFNWYVDGVEVHNAKTKPREEQYNSTYRVVSVLTVLHQDWLNGKEYKCKVSNKALPAPIEKTISKAKGQPREPQVYVLPPSREEMTKNQVSLLCLVKGFYPSDIAVEWESNGQPENRYMTWPPVLDSDGSFFLYSKLTVDKSRWQQGNVFSCSVMHEALHNHYTQKSLSLSPGK
3% | 31% | 1% | 30% |  |  |  | IL-2(R38D/K43E/E61R/Q126T)/PD-L1(mut2)-Fc/IL-12(E59A/F60A) (Fc fusion) chain 1: FTVTVPKDLYVVEYGSNMTIECKFPVEKQLDLAALQVYWMMEDKNIIQFVHGEEDLKVQHSSYRQRARLLKDQLSLGNAALQITDVKLQDAGVYTCLIAYKGADYKRITVKVNAPYNKINQRILVVDPVTSEHELTCQAEGYPKAEVIWTSSDHQVLSGKTTTTNSKREEKLFNVTSTLRINTTTNEIFYCTFRRLDPEENHTAELVIPELPLAHPPNERGGGGSGGGDKTHTCPPCPAPEDEGGPSVFLFPPKPKDTLMISRTPEVTCVVVDVSHEDPEVKFNWYVDGVEVHNAKTKPREEQYNSTYRVVSVLTVLHQDWLNGKEYKCKVSNKALPAPIEKTISKAKGQPREPQVYVYPPSREEMTKNQVSLTCLVKGFYPSDIAVEWESNGQPENNYKTTPPVLDEDGSFALVSKLTVDKSRWQQGNVFSCSVMHEALHNHYTQKSLSLSPGKGGGGSGGGIWELKKDVYVVELDWYPDAPGEMVVLTCDTPEEDGITWTLDQSSEVLGSGKTLTIQVKAAGDAGQYTCHKGGEVLSHSLLLLHKKEDGIWSTDILKDQKEPKNKTFLRCEAKNYSGRFTCWWLTTISTDLTFSVKSSRGSSDPQGVTCGAATLSAERVRGDNKEYEYSVECQEDSACPAAEESLPIEVMVDAVHKLKYENYTSSFFIRDIIKPDPPKNLQLKPLKNSRQVEVSWEYPDTWSTPHSYFSLTFCVQVQGKSKREKKDRVFTDKTSATVICRKNASISVRAQDRYYSSSWSEWASVPCSGGGGSGGGSGGGGSRNLPVATPDPGMFPCLHHSQNLLRAVSNMLQKARQTLEFYPCTSEEIDHEDITKDKTSTVEACLPLELTKNESCLNSRETSFITNGSCLASRKTSFMMALCLSSIYEDLKMYQVEFKTMNAKLLMDPKRQIFLDQNMLAVIDELMQALNFNSETVPQKSSLEEPDFYKTKIKLCILLHAFRIRAVTIDRVMSYLNAS chain 2: FTVTVPKDLYVVEYGSNMTIECKFPVEKQLDLAALQVYWMMEDKNIIQFVHGEEDLKVQHSSYRQRARLLKDQLSLGNAALQITDVKLQDAGVYTCLIAYKGADYKRITVKVNAPYNKINQRILVVDPVTSEHELTCQAEGYPKAEVIWTSSDHQVLSGKTTTTNSKREEKLFNVTSTLRINTTTNEIFYCTFRRLDPEENHTAELVIPELPLAHPPNERGGGSGAPTSSSTKKTQLQLEHLLLDLQMILNGINNYKNPKLTDMLTFEFYMPKKATELKHLQCLERELKPLEEVLNLAQSKNFHLRPRDLISNINVIVLELKGSETTFMCEYADETATIVEFLNRWITFCTSIISTLTGGGGSGGGDKTHTCPPCPAPEKKGGPSVFLFPPKPKDTLMISRTPEVTCVVVDVSHEDPEVKFNWYVDGVEVHNAKTKPREEQYNSTYRVVSVLTVLHQDWLNGKEYKCKVSNKALPAPIEKTISKAKGQPREPQVYVLPPSREEMTKNQVSLLCLVKGFYPSDIAVEWESNGQPENRYMTWPPVLDSDGSFFLYSKLTVDKSRWQQGNVFSCSVMHEALHNHYTQKSLSLSPGK
 |  |  |  | no binding | 43% | 25% | Fab-IL-12(WT)-Fc-CD4 Ab (other, copies: 2 + 1 + 1) light: not shown heavy 1: QVQLQQSGPEVVKPGASVKMSCKASGYTFTSYVIHWVRQKPGQGLDWIGYINPYNDGTDYDEKFKGKATLTSDTSTSTAYMELSSLRSEDTAVYYCAREKDNYATGAWFAYWGQGTLVTVSSASTKGPSVFPLAPSSKSTSGGTAALGCLVKDYFPEPVTVSWNSGALTSGVHTFPAVLQSSGLYSLSSVVTVPSSSLGTQTYICNVNHKPSNTKVDKKVEPKSCDKTHTCPPCPAPEKKGGPSVFLFPPKPKDTLMISRTPEVTCVVVDVSHEDPEVKFNWYVDGVEVHNAKTKPREEQYNSTYRVVSVLTVLHQDWLNGKEYKCKVSNKALPAPIEKTISKAKGQPREPQVYVLPPSREEMTKNQVSLLCLVKGFYPSDIAVEWESNGQPENRYMTWPPVLDSDGSFFLYSKLTVDKSRWQQGNVFSCSVMHEALHNHYTQKSLSLSPGK heavy 2: QVQLQQSGPEVVKPGASVKMSCKASGYTFTSYVIHWVRQKPGQGLDWIGYINPYNDGTDYDEKFKGKATLTSDTSTSTAYMELSSLRSEDTAVYYCAREKDNYATGAWFAYWGQGTLVTVSSASTKGPSVFPLAPSSKSTSGGTAALGCLVKDYFPEPVTVSWNSGALTSGVHTFPAVLQSSGLYSLSSVVTVPSSSLGTQTYICNVNHKPSNTKVDKKVEPKSCDKPGSGIWELKKDVYVVELDWYPDAPGEMVVLTCDTPEEDGITWTLDQSSEVLGSGKTLTIQVKEFGDAGQYTCHKGGEVLSHSLLLLHKKEDGIWSTDILKDQKEPKNKTFLRCEAKNYSGRFTCWWLTTISTDLTFSVKSSRGSSDPQGVTCGAATLSAERVRGDNKEYEYSVECQEDSACPAAEESLPIEVMVDAVHKLKYENYTSSFFIRDIIKPDPPKNLQLKPLKNSRQVEVSWEYPDTWSTPHSYFSLTFCVQVQGKSKREKKDRVFTDKTSATVICRKNASISVRAQDRYYSSSWSEWASVPCSGGGGSGGGGSGGGGSGGGGSGRNLPVATPDPGMFPCLHHSQNLLRAVSNMLQKARQTLEFYPCTSEEIDHEDITKDKTSTVEACLPLELTKNESCLNSRETSFITNGSCLASRKTSFMMALCLSSIYEDLKMYQVEFKTMNAKLLMDPKRQIFLDQNMLAVIDELMQALNFNSETVPQKSSLEEPDFYKTKIKLCILLHAFRIRAVTIDRVMSYLNASDKTHTCPPCPAPEDEGGPSVFLFPPKPKDTLMISRTPEVTCVVVDVSHEDPEVKFNWYVDGVEVHNAKTKPREEQYNSTYRVVSVLTVLHQDWLNGKEYKCKVSNKALPAPIEKTISKAKGQPREPQVYVYPPSREEMTKNQVSLTCLVKGFYPSDIAVEWESNGQPENNYKTTPPVLDEDGSFALVSKLTVDKSRWQQGNVFSCSVMHEALHNHYTQKSLSLSPGK
